Test results: article PMC10318897, “The structure of Leptospira interrogans GAPDH sheds light into an immunoevasion factor that can target the anaphylatoxin C5a of innate immunity” (Frontiers in Immunology, 2023)

B1: Leptospira interrogans glyceraldehyde-3-phosphate dehydrogenase (GAPDH) (enzyme)
chain: MTRIAINGFGRIGRLVFRAGIKDPNLEFVAINDLVTPDNLAYLLKYDSTHGRFQGTVEHTEKELIVDGKKILCVSERDPEKLPWKDLKVDYVIESTGLFTDRVGAEKHIKAGAKKVVISAPAKDKDIPTFVMGVNNEKYNPSNDHIVSNASCTTNCLAPIVKVVLDNWGIEEGLMTTIHATTATQPTVDGPSKKDFRGGRGAMQNIIPASTGAAKAVGLCIPEVNGKLTGMSFRVPTPDVSVVDLTVRTTKETSLKEISAKMKAASEGAMKGILGYTEDMVVSNDFVSSTLSSIFDMDACIELNSRFFKLVSWYDNEMGYSNRVLDLIRYMAKKG
notes: also called LiGAPDH; L. interrogans GAPDH; source: E. coli Rosetta(DE3), purified (HisTrap, Superdex 200 SEC); not shown: His6, N-terminal, kept

Columns and labels:
[1] = target: the molecule itself; experiment: SEC; HiLoad 16/60 Superdex 200 pg in 10 mM HEPES-NaOH (pH 7.4), 150 mM NaCl, 3.4 mM EDTA; elution volume compared with a calibration curve
[2] = target: B1; experiment: BLI; conditions: both partners purified

Binder	stoichiometry N [1]	kon [2] [M⁻¹ s⁻¹]
B1	4	
biotinylated-C5a (ligand, biotinylated (site not stated), also called immobilized C5a; source: bought: Abvance Biotech (ABVC5ARBIO1)) TLQKKIEEIAAKYKHSVVKKCCYDGACVNNDETCEQRAARISLGPRCIKAFTECCVVASQLRANISHKDMQLGR		37.3 ± 0.2
